In patent publication US20190360025A1:

Assays:
[1] = molecular target: tumor necrosis factor alpha (TNF-α), R&D Systems 210-TA-005 (UniProt P01375); assay: t-PLA, buffer; TNF-α 1.00E-11 M
[2] = molecular target: tumor necrosis factor alpha (TNF-α), R&D Systems 210-TA-005 (UniProt P01375); assay: t-PLA 10X probes, buffer; TNF-α 1.00E-11 M
[3] = molecular target: tumor necrosis factor alpha (TNF-α), R&D Systems 210-TA-005 (UniProt P01375); assay: c-PLA 10X probes, human plasma; TNF-α 1.00E-12 M
[4] = molecular target: tumor necrosis factor alpha (TNF-α), R&D Systems 210-TA-005 (UniProt P01375); assay: t-PLA, buffer; TNF-α 1.00E-08 M
[5] = molecular target: tumor necrosis factor alpha (TNF-α), R&D Systems 210-TA-005 (UniProt P01375); assay: t-PLA 1X probes, human plasma; TNF-α 5.00E-07 M
[6] = molecular target: tumor necrosis factor alpha (TNF-α), R&D Systems 210-TA-005 (UniProt P01375); assay: t-PLA, buffer; TNF-α 5.00E-07 M
[7] = molecular target: tumor necrosis factor alpha (TNF-α), R&D Systems 210-TA-005 (UniProt P01375); assay: c-PLA 10X probes, buffer; TNF-α 1.00E-09 M
[8] = molecular target: tumor necrosis factor alpha (TNF-α), R&D Systems 210-TA-005 (UniProt P01375); assay: c-PLA, buffer; TNF-α 5.00E-07 M
[9] = molecular target: tumor necrosis factor alpha (TNF-α), R&D Systems 210-TA-005 (UniProt P01375); assay: c-PLA 1X probes, human plasma; TNF-α 1.00E-11 M
[10] = molecular target: tumor necrosis factor alpha (TNF-α), R&D Systems 210-TA-005 (UniProt P01375); assay: t-PLA 10X probes, human plasma; TNF-α 5.00E-07 M
[11] = molecular target: tumor necrosis factor alpha (TNF-α), R&D Systems 210-TA-005 (UniProt P01375); assay: t-PLA 1X probes, human plasma; TNF-α 1.00E-10 M
[12] = molecular target: tumor necrosis factor alpha (TNF-α), R&D Systems 210-TA-005 (UniProt P01375); assay: t-PLA 1X probes, human plasma; TNF-α 1.00E-09 M
[13] = molecular target: tumor necrosis factor alpha (TNF-α), R&D Systems 210-TA-005 (UniProt P01375); assay: t-PLA 10X probes, human plasma; TNF-α 1.00E-12 M
[14] = molecular target: vascular endothelial growth factor (VEGF), R&D Systems 293-VE-010 (human) (UniProt P15692); assay: c-PLA, chicken plasma; VEGF 1.00E-12 M
UniProt P15692, sequence (P15692 other isoform, or with tags, fused parts or gaps limits assumed): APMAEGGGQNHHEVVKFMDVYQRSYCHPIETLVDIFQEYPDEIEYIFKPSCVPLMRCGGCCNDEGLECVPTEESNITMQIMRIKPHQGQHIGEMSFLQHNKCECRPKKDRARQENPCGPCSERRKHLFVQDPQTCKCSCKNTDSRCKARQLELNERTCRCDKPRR

[15] = molecular target: vascular endothelial growth factor (VEGF), R&D Systems 293-VE-010 (human) (UniProt P15692); assay: c-PLA with preamplification; VEGF 1.00E-11 M
[16] = molecular target: vascular endothelial growth factor (VEGF), R&D Systems 293-VE-010 (human) (UniProt P15692); assay: t-PLA, chicken plasma; VEGF 1.00E-09 M
[17] = molecular target: vascular endothelial growth factor (VEGF), R&D Systems 293-VE-010 (human) (UniProt P15692); assay: c-PLA, human plasma; VEGF 1.00E-13 M
[18] = molecular target: vascular endothelial growth factor (VEGF), R&D Systems 293-VE-010 (human) (UniProt P15692); assay: c-PLA, chicken plasma; VEGF 1.00E-13 M
[19] = molecular target: vascular endothelial growth factor (VEGF), R&D Systems 293-VE-010 (human) (UniProt P15692); assay: t-PLA, chicken plasma; VEGF 1.00E-12 M
[20] = molecular target: vascular endothelial growth factor (VEGF), R&D Systems 293-VE-010 (human) (UniProt P15692); assay: c-PLA, human plasma; VEGF 1.00E-09 M
[21] = molecular target: vascular endothelial growth factor (VEGF), R&D Systems 293-VE-010 (human) (UniProt P15692); assay: t-PLA, chicken plasma; VEGF 1.00E-14 M
[22] = molecular target: vascular endothelial growth factor (VEGF), R&D Systems 293-VE-010 (human) (UniProt P15692); assay: t-PLA, human plasma; VEGF 1.00E-09 M
[23] = molecular target: vascular endothelial growth factor (VEGF), R&D Systems 293-VE-010 (human) (UniProt P15692); assay: c-PLA with preamplification; VEGF 1.00E-09 M
[24] = molecular target: vascular endothelial growth factor (VEGF), R&D Systems 293-VE-010 (human) (UniProt P15692); assay: t-PLA, human plasma; VEGF 1.00E-10 M
[25] = molecular target: vascular endothelial growth factor (VEGF), R&D Systems 293-VE-010 (human) (UniProt P15692); assay: t-PLA, chicken plasma; VEGF 1.00E-10 M
[26] = molecular target: vascular endothelial growth factor (VEGF), R&D Systems 293-VE-010 (human) (UniProt P15692); assay: t-PLA, buffer; VEGF 1.00E-10 M
[27] = molecular target: vascular endothelial growth factor (VEGF), R&D Systems 293-VE-010 (human) (UniProt P15692); assay: c-PLA, buffer; VEGF 1.00E-12 M
[28] = molecular target: vascular endothelial growth factor (VEGF), R&D Systems 293-VE-010 (human) (UniProt P15692); assay: c-PLA, chicken plasma; VEGF 1.00E-11 M

UniProt P01375, sequence (P01375 77-233 limits assumed): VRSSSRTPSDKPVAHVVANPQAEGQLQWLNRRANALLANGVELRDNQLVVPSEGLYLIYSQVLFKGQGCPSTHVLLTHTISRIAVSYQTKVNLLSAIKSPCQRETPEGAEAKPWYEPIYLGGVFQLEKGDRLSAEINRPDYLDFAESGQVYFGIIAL

affinity-purified polyclonal anti-TNF-α antibody (R&D Systems AF-210-NA)
Counts [1]: 443000 | SBR [1]: 2.6 | Counts [2]: 7.03e+06 | SBR [2]: 1.2 | Counts [3]: 2260 | Counts [4]: 5.4e+07 | SBR [4]: 317 | Counts [5]: 2.12e+08 | SBR [5]: 892 | Counts [6]: 1.33e+08 | SBR [6]: 780 | Counts [7]: 80000 | SBR [7]: 437 | Counts [8]: 33000 | SBR [8]: 2930 | Counts [9]: 105 | SBR [9]: 1.4 | Counts [10]: 2.25e+09 | SBR [10]: 198 | Counts [11]: 1.56e+06 | SBR [11]: 6.6 | Counts [12]: 4.96e+06 | SBR [12]: 21 | SBR [13]: 2.4

affinity-purified polyclonal anti-VEGF antibody (R&D Systems AF-293-NA)
Counts [14]: 198 | SBR [14]: 22 | Counts [15]: 4.88e+06 | SBR [15]: 82 | Counts [16]: 2.39e+08 | SBR [16]: 3580 | Counts [17]: 310 | SBR [17]: 1.2 | Counts [18]: 29 | SBR [18]: 3.1 | Counts [19]: 787000 | SBR [19]: 12 | Counts [20]: 40500 | SBR [20]: 156 | Counts [21]: 71600 | SBR [21]: 1.1 | Counts [22]: 1.4e+08 | SBR [22]: 86 | Counts [23]: 2.36e+08 | SBR [23]: 3970 | Counts [24]: 4.9e+07 | SBR [24]: 30 | Counts [25]: 9.58e+07 | SBR [25]: 1430 | Counts [26]: 7.59e+08 | SBR [26]: 2190 | Counts [27]: 619 | SBR [27]: 21 | Counts [28]: 2160 | SBR [28]: 234
